Measurements reported in the supplement of paper PMC9170038.

Test system: MS2 coat protein
Experiment: apparent KD of MS2 coat protein, switch ON state; designed switch direction (-1 OFF switch, 1 ON switch): 1; higher = weaker reporter binding
Details: FMN input: 0 or 200 uM; Eterna round: R93 (includes R88 designs)
Procedure, shortened: (§1)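 Titration buffer: 100 mM Tris-HCl pH 7.5, 80 mM KCl, 4 mM MgCl2, without or with constant ligand. Designed RNA switches transcribed on-chip from Illumina sequencing clusters received SNAP-549-labelled MS2 coat protein in twofold steps from 0.7 or 1.5 nM to 3 µM. Apparent KD is the median per design of fits to normalised cluster binding curves.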

Sequence | apparent KD of MS2 coat protein
GGGAGGAAGAGAGAGGAUAUCCAAAGGAAAACAUGAGGAUCACCCAUGUAAAAGGUAGGAAAUUGGGAGAAGGCUCAAGAGACCG [salish99-ss2-057] | 34.2 nM
AACAAUCUAUCUGAGGAUAUAUGUCAAAAGACAUGAGGAUCACCCAUGUAAAAACAUGAAAAGACAUAGAAGGCAGAUAGAUUGA [SS2: 1133] | 25.4 nM
AAAAAACAUGAGGAUCACCCAUGUCCUCGGACGUGAGGAUAUGUACAGACUUCGGUCUGUACAGAAGGCACAAAAA [SS1 - 1034] | 1240 nM
AGGAAACAUGAGGAUCACCCAUGUGUAAAAAAUACAGGAUAUGGAAACACGAAAGUGAAACCAGAAGGGUAAAAAA [77%, Mat - Mod of Eli, 31] | 13.4 nM

Test system: MS2 coat protein
Experiment: apparent KD of MS2 coat protein, switch OFF state (with FMN for OFF switches, without FMN for ON switches); designed switch direction (-1 OFF switch, 1 ON switch): 1; higher = weaker reporter binding
Details: FMN input: 0 or 200 uM; Eterna round: R93 (includes R88 designs)
Procedure, shortened: as §1

Sequence | apparent KD of MS2 coat protein
AAGAAACAUGAGGAUCACCCAUGUACCCAAAAGGGAGGAUAUGGAAAAGAAAGAAAGAAACCAGAAGGCCCAUGAA [Artabanus the Hyrcanian] | 22.2 nM
GAUAGACAUGAGGAUCACCCAUGUAGAAUUAUGGGAGGAUAUACAAAGACGAGAGUCAGAGUAGAAGGCCUAGGAC [salish99-ss1-159] | 58.6 nM
AGACAUAAAAGAGAGGAUAUCCAAAAGAAAACAUGAGGAUCACCCAUGUAAAAGAAAAUAAAAUGGGAGAAGGCUCACAUACAGA [Topaz 35] | 50.4 nM
AAAGAAAAACUAGAGGAUAUCUGAAUGGUAACAUGAGGAUCACCCAUGUGAAGAAAGGAACAUGAGGAGAAGGCUAGAAGAAAAA [JL Nando mod 17] | 35.4 nM
GAGAAACAUGAGGAUCACCCAUGUAGAAAUAUGGGAGGAUAUACAGAGACGAGAGUCAAAGUAGAAGGCCUAGAAG [77%, Mat - Mod of Eli - With 4 more G's] | 66.1 nM
CUGGACAUAGUAUAGGAUAUAUGAAUAGUUACAUGAGGAUCACCCAUGUGCAUUUAUAUGCGAACAUAGAAGGGUGGUAGUUAAG [Mat - Same state - Malcolm Mod - D141] | 48.4 nM
CGUGAACAUGAGGAUCACCCAUGUGAAAAACAUAGAGGAUAUGUCACGUGAGUGUAAAAGACAGAAGGCUAUCGUG [Mod 3 of Round 1 starryjess' Mod pf Nando] | 74.1 nM
AACAAUCUAUCUGAGGAUAUGUGUCGAAAGACAUGAGGAUCACCCAUGUAAAAACAUGGGAAGAUACAGAAGGCAGAUAGAUUGA [SS2: 1161] | 29.3 nM
AAAAAACAUGAGGAUCACCCAUGUAAAAAAAACACAGGAUAUCCCUUUUUAAAAAAAAAAGGAGAAGGGUGAAAAA [Nob's Hobby 6 - Jieux - Same State 1] | 28 nM
GUAUAUAUAAGACAGGAUAUCCGAAAGUAAACAUGAGGAUCACCCAUGUAAAGAAAGAAACUCAUGGAGAAGGGUCAAUAUAUAC [Mat - Same State 2 - Tesla mod - D83] | 66.7 nM
CAUCAACAUGAGGAUCACCCAUGUCAGUGAUGUCAAGGAUAUGGGAGACAUAAAAUUCUUCUAGAAGGUGAAAGAU [Orlaanar] | 125 nM
AAAAUAAAAUAAAAGGAUAUAAAAAUAUAUACAUGAGGAUCACCCAUGUAUAUAAAAAUAAAAUAAAAGAAGGAAUAAAAAUAAA [SS2 507: MS2 7] | 18.9 nM
AAAAAACAAAGAGAGGAUAUCCUAAAAAAAACAUGAGGAUCACCCAUGUAAAGAAAUUUAAAAUGGGAGAAGGCUCUUUGAAAAA [Same State 2.6d ( Helter Skelter 1)] | 23.2 nM
GGAACUACAGAUCAGGAUAUGUUUGGGUAAACAUGAGGAUCACCCAUGUGCACCCGAUACACAGGACAGAAGGGAUAACGUGGGA [Maondior] | 20.2 nM
GAAAAACAUGAGGAUCACCCAUGUAGAGAUAUGGGAGGAUAUACAAAGACGAAAGUCGAGGUAGAAGGCCUAAAAG [Garnet 55] | 116 nM
ACCCGCAGCCGUCAGGAUAUGUUCGCGUCAACAUGAGGAUCACCCAUGUGUGACAAGAAGUACACGCAGAAGGGAUCAAUGCGGG [Bienri] | 16.4 nM
AAUAUAUUAAGUGAGGAUAUCAUAGGAAAAACAUGAGGAUCACCCAUGUGGGAAACCUGGUCGGGUGAGAAGGUGCUUAAUAUAU [Samwise Clockwise 32 - Jieux - Same State 2] | 235 nM
AAAAGACAUGAGGAUCACCCAUGUGAAAACAUACAAGGAUAUGUGUGGAAACCGUACUAUACAGAAGGUGUAUGUC [SS1 - 85] | 28.5 nM
GAAAAACAUGAGGAUCACCCAUGUGGAAAUAUGGGAGGAUAUACUAAGACGAAAGUCGAUGUAGAAGGCCUAAAAG [Same State 1.4e (Mat - Mod of Eli - )] | 82.9 nM

Sequence | apparent KD of MS2 coat protein
AUCAGGAAGAGAGAGGAUAUCCAAAGGAAAACAUGAGGAUCACCCAUGUAAAAGGUAGGAAAUUGGGAGAAGGCUCAAGAGAGAG [salish99-ss2-093] | 29.3 nM
AAAACCUGCGUCGAGGAUAUGUAGCCCACUACAUGAGGAUCACCCAUGUGGAUCUUACUGGGUCGACAGAAGGUGAAAGUUAGGC [Onlele] | 34.7 nM
GAAAAACAUGAGGAUCACCCAUGUCGAGAGAGACGAGGAUAUCUGAAUCGAUUAGAUUACGGAGAAGGCGUGAAAG [Mat - Same State 1 - Hyphema mod - D96] | 25.8 nM
AACAAUCUAUCUGAGGAUAUCAUAAAAAAGACAUGAGGAUCACCCAUGUAGCAGGAAACUGCAUAUGAGAAGGCAGAUAGAUUGA [SS2: 1122] | 18.1 nM
AUAACACAUGAGGAUCACCCAUGUAGAAACAAGUCAGGAUAUGCAACCUCAUGAAAUAAAGCAGAAGGGACAAUAA [SS 1 Tesla 4] | 88 nM
AGCACGUGAUUGGAGGAUAUGUAGUAAGCAACAUGAGGAUCACCCAUGUCUGAGGCUGAAAACCAGCAGAAGGCCGAUACAACCA [SS2-1.6] | 22.7 nM
AAAAAACAUGAGGAUCACCCAUGUGCAAAAUUCGCAGGAUAUUCCUCAAUUAAAUGAAAGGAAGAAGGGUGACAAA [Nob's Hobby 30 - Jieux - Same State 1] | 253 nM
AAUCCAAAUAGUUAGGAUAUGGGAAUUAAGACAUGAGGAUCACCCAUGUAAUUAAAACAAGUUAACCAGAAGGGACAGGGUGAAA [JR_SS002_Sub207] | 112 nM
AUAUGAUCAUGUGAGGAUAUCCAUAAUAAAACAUGAGGAUCACCCAUGUAUAGAUAAUAAUAAUGGGAGAAGGCACAUGAUCAAU [SS 2 M41] | 17.9 nM
AGAAAACAUGAGGAUCACCCAUGUAGAAAUAUGGGAGGAUAUACGAGGACGAAAGUCAAAGUAGAAGGCCUAAAGA [Mat - Same State 1 - Meechl mod - D125] | 71.2 nM
AGGAAACAUGAGGAUCACCCAUGUAAAAAUAACACAGGAUAUGGAAACACGAAAGUGAAACCAGAAGGGUGAAAAG [77%, Mat - Mod of Eli, 16] | 26.1 nM
AAAAAAAAAGUAGAGGAUAUCCAAAUGGCUACAUGAGGAUCACCCAUGUGAAGAAAAGCACAUGAGGAGAAGGCUACAAAAAAAAA [Blender bender] | 21.7 nM
AGAAAUAAAACACAGGAUAUGAAAAAGAAAACAUGAGGAUCACCCAUGUAAAAGAAAAAUAAAAAUCAGAAGGGUGAAAAUAAAG [Put G segment last in JL design (80%)] | 205 nM
AAGCAACAUGAGGAUCACCCAUGUAGCAGGGUCAGAGGAUAUUUGAUCUUGGUAAGGGUUAAAGAAGGUUGAUAAA [Ceralete] | 91.1 nM
GGGAGGAAGAGAGAGGAUAUCCAAAGGAAAACAUGAGGAUCACCCAUGUAAAAGGUAGGAAAUUGGGAGAAGGCUCAAGAGACCG [salish99-ss2-057] | 37.9 nM
AACAAUCUAUCUGAGGAUAUAUGUCAAAAGACAUGAGGAUCACCCAUGUAAAAACAUGAAAAGACAUAGAAGGCAGAUAGAUUGA [SS2: 1133] | 35.1 nM
AAAAAACAUGAGGAUCACCCAUGUCCUCGGACGUGAGGAUAUGUACAGACUUCGGUCUGUACAGAAGGCACAAAAA [SS1 - 1034] | 333 nM
AGGAAACAUGAGGAUCACCCAUGUGUAAAAAAUACAGGAUAUGGAAACACGAAAGUGAAACCAGAAGGGUAAAAAA [77%, Mat - Mod of Eli, 31] | 19 nM
